Experimental data published in patent US20080181901A1.

Target: endogenous Na,K-ATPase of tsA201 cells
Experiment: cell-based or functional assay

- decrease in endogenous ouabain-sensitive 86Rb+ uptake into intact tsA201 cells: 19%
Substance: full-length MONaKA transfected into tsA201 cells (86Rb+ uptake assay)
